# B1: #1-L4-#1: dimer of VHH #1 with linker L4 (GSEGKSSGSGSESKST), SEQ ID NO: 23 (protein)
# VHH: QLQLVESGGGSVQAGGSLRLSCAASRSLSRFNVWTWYRQAPVKQRELVASITKSGDTNYAESVKGRFIISRDDDKNTVYLQMNNLKSEDTGIYYCAGSYYSGSYLYPSPGGFSVWGQGTQVTVSSGSEGKSSGSGSESKSTQLQLVESGGGSVQAGGSLRLSCAASRSLSRFNVWTWYRQAPVKQRELVASITKSGDTNYAESVKGRFIISRDDDKNTVYLQMNNLKSEDTGIYYCAGSYYSGSYLYPSPGGFSVWGQGTQVTVSS
# modifications: #1-L4-#1
# Legend:
# [1] = system: mouse fibroblast cell line NIH/3T3; test: Inhibition of growth factor activity of VHH homodimer by FGFR inhibitor (fibroblasts); type: cell-based; settings: 10 and 100 ng/ml test substance plus FGFR kinase inhibitor
# Excerpt: Promotion of Fibroblast Growth by VHH (Homodimer)” described above.
# It was examined whether the cell growth activities of bFGF and the single-domain antibody were inhibited by NPV-BGJ398 which is an FGFR kinase inhibitor.
# [2] = system: human bone marrow-derived MSC; test: MSC: evaluation of bone differentiation induction (Alizarin Red); type: cell-based; settings: MSC after 3 passages with 20 ng/ml additive, 14 days induction
# Protocol: A third passage was performed in a CellBIND® 24-well transparent multi-well plate, and then at a time of reaching 80% to 90% confluence, medium exchange was performed in MesenCult Stem Cell Osteogenic Differentiation Medium (PromoCell, C/N: C-28013) which is a medium for differentiation induction. Furthermore, for the cells as a negative control, D-MEM (10% FBS or 20% FBS) which is a culture medium was used for the medium exchange. The medium exchange was carried out every 2 to 4 days.
# After 14 days from seeding, a 4% paraformaldehyde/phosphate buffer solution was added thereto at 500 μL/well, and the cells were left to stand for 2 hours or longer. After the immobilization, purified water was added thereto at 500 μL/well. 500 μL of an Alizarin Red solution (PG Research Co., Ltd., ARD-SET) was added to each well, which was left to stand at room temperature for 30 minutes. The Alizarin Red solution was removed, and washing was performed three times or more with purified water until the washing water became transparent. The water was completely removed, and the coating film was dried, and observed with a microscope to acquire an image. 500 μL of a calcifide nodule dissolution solution (PG Research Co., Ltd., ARD-SET) was added into the well and distributed for 10 minutes to elute the dye. 100 μL of the eluate was transferred to a 96-well plate and the absorbance at 450 nm was measured. […]
# [3] = system: mouse fibroblast cell line NIH/3T3; test: Promotion of fibroblast growth by VHH (homodimer), cell growth assay; type: cell-based; settings: NIH/3T3, serum-free, 2 days, 2-fold dilution series, 4-parameter fit; read-out: EC50 of the growth of cultured fibroblasts
# Protocol: A mouse fibroblast cell line NIH/3T3 was used as a fibroblast. A mouse fibroblast cell line NIH/3T3 was obtained from ECACC through a domestic agent, subjected to extended culture, then cryopreserved at −80° C. using CellBanker1 plus (manufactured by ZENOAQ), and used. […]
# The cell growth assay for bFGF was performed according to the following procedure. […] The plate was further left to stand for 8 minutes, and then the luminescence in each well was measured with a Synergy HTX plate reader (manufactured by BioTek) with a sensitivity set (Gain) of 200 and a measurement time of 1 s/well. […]
# The measurement was performed at three points at each concentration of the test substance, and the conditions were set such that for the measurement at a single concentration, 100 ng/mL of bFGF was set as a positive control and a condition of no addition was set as a negative control. […] The EC50 measurement data were fitted to 4-parameter fit according to an ordinary method by control software attached to a plate reader, and an EC50 value was calculated.
# iPS cells (253G1 cells) = test: iPS cell culture: evaluation of preservation stability; type: cell-based, human; settings: stock preserved 3 or 4 weeks at 4° C. versus −80° C.; 20 ng/mL
# Protocol: Basic FGF and VHH stocks were collected in a 1.5 mL microtube 3 or 4 weeks before culturing, and preserved in a refrigerator (4° C.). Hereinafter, all operations were the same as those in the cell growth evaluation procedure, except that for basic FGF and VHH, a medium was prepared so that the both were preserved at 20 ng/mL using both refrigeration (4° C.)- and freeze (−80° C.)-preservation conditions.
# [4] = system: human bone marrow-derived MSC; test: MSC culture: evaluation of MSC markers by flow cytometry; type: cell-based; settings: MSC fourth passage, 10% or 20% FBS; for CD90-expressing (positive) cells: over the concentrations tested
# Protocol: On Day 5 after the initial seeding, D-PBS was added to the cells and removed by suction. 500 μL of TrypLE Express was added to each well and the mixture was left to stand in a CO2 incubator for 5 to 10 minutes. The cells were observed under a microscope, and in a case where it was possible to confirm that the cells had changed in morphology, a medium was added thereto, and the cells were recovered in a PP tube by pipetting, and centrifuged (300× g, 5 minutes). After the centrifugation, the supernatant was removed by suction, an appropriate amount of 1% BSA/PBS was added to the pellet, and the mixture was pipetted to form a suspension.
# A part of the suspension was collected and the number of cells was evaluated with a cell counter. Dilution was performed with 1% of BSA/PBS, so that the concentration was 0.6 to 1.0× 10^6 cells/mL. 50 μL of the mixture was dispensed into a 2 mL tube, so that the concentration was 3 to 5×10^4 cells/tube.
# Equal amounts of the suspension subjected to the cell counter and the antibody solution adjusted above were mixed, and the mixture was left to stand on ice for 30 minutes or longer with light shielded. 1% of BSA/PBS was added thereto, the mixture was centrifuged (400 to 600×g, 5 minutes), and then the supernatant was removed by suction. Then, 300 to 500 μL of 1% BSA/PBS was added thereto, and the pipetted sample was subjected to flow cytometric analysis using an Attune NxT Flow Cytometer (Thermo Fisher Scientific, Inc.).
Molecule,cell growth with addition of NPV-BGJ398 [1],bone differentiation (Alizarin Red) [2],EC50 [3],growth performance of iPS cells with additive preserved at 4° C. (iPS cells (253G1 cells)),"CD90-expressing cells ([4]; ""at ng/mL"" (figure not given))",CD90-expressing (positive) cells [4]
"FGF2: fibroblast growth factor (basic), human, recombinant (154aa), positive control; SEQ ID NO: 58 [reference compound]",suppressed cell growth,Differentiation was similarly recognized,5.1 nM,growth performance was significantly deteriorated,less than 95%,decreased in inverse proportion to the concentration
B1,suppressed cell growth,Differentiation was similarly recognized,11.6 nM,exhibited growth performance similar to that of VHH preserved at −80 °C,,≥ 97%

# From US20240279618A1, “RECEPTOR TYROSINE KINASE AGONIST, COMPOSITION FOR CELL CULTURE MEDIUM, AND […] MAINTENANCE COMPOSITION” (SEKISUI CHEMICAL CO., LTD., priority 2021, published 2024)
